Data as given in US20260216242A1 (ALMAC DISCOVERY, published 2026).

T1: human ALPI (intestinal alkaline phosphatase) expressed on the surface of CHO cells (human, UniProt P09923 20-503)
T1 sequence (looked up): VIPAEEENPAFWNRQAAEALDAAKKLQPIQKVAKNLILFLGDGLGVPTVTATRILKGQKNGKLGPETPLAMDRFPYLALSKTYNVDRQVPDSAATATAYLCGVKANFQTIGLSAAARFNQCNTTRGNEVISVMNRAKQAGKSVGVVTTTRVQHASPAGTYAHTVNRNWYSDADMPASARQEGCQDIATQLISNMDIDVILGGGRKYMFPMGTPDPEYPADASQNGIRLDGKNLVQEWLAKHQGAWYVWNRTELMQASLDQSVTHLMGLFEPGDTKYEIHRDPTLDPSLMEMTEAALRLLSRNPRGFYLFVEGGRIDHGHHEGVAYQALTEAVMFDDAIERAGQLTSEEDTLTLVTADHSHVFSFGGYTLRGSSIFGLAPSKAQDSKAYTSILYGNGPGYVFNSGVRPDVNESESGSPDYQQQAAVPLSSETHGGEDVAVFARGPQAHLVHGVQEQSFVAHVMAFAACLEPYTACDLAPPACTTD

T2: human ALPL (tissue non-specific alkaline phosphatase) expressed on the surface of CHO cells (human, UniProt P05186 18-501)
T2 sequence (looked up): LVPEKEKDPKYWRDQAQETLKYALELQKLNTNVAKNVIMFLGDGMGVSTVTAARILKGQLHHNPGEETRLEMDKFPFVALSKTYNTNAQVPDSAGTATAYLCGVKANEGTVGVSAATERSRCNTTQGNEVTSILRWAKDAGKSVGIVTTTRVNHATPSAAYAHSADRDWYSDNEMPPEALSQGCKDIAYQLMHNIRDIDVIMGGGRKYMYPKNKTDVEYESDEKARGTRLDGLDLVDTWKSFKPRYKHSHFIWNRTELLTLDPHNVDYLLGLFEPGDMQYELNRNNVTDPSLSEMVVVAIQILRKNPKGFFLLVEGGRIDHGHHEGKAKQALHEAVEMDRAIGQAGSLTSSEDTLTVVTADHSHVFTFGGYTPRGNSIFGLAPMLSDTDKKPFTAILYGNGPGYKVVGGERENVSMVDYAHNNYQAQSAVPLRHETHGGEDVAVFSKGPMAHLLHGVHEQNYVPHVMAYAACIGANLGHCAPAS

T3: human ALPI on CHO cells (human, UniProt P09923 20-503)
T3 construct: whole, on cells; also called CHO-ALPI
T3 sequence (looked up): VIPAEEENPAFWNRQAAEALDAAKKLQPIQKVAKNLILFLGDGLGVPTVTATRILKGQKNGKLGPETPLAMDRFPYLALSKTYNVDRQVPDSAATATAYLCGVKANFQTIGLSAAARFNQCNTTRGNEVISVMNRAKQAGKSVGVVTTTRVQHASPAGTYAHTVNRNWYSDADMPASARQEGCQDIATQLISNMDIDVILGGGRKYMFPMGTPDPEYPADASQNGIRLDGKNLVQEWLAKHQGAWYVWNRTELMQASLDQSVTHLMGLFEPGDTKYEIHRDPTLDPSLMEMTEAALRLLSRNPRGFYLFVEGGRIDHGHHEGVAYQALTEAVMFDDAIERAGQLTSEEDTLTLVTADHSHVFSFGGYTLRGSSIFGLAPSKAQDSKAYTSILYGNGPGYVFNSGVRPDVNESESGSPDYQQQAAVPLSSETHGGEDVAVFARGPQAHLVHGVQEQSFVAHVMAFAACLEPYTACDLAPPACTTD

T4: human ALPL on CHO cells (human, UniProt P05186 18-501)
T4 construct: whole, on cells; also called CHO-ALPL
T4 sequence (looked up): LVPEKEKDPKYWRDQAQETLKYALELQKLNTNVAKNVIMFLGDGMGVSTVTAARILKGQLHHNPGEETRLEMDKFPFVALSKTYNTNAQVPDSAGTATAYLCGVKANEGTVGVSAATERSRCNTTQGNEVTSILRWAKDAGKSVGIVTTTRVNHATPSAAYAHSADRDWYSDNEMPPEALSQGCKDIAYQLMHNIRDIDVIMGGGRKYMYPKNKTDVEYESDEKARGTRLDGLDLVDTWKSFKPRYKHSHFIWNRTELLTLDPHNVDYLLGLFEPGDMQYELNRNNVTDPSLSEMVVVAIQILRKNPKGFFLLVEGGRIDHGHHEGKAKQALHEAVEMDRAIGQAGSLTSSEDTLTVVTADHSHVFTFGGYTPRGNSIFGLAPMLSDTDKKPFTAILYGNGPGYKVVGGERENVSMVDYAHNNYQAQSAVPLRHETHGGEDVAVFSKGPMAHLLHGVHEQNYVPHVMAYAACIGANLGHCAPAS


How the values were obtained:
[1] = molecular target: T5, human ALPPL2 (alkaline phosphatase, germ cell type) expressed on the surface of CHO cells (human, UniProt P10696 20-503); assay: cell-based or functional assay
T5 sequence (P10696 20-503): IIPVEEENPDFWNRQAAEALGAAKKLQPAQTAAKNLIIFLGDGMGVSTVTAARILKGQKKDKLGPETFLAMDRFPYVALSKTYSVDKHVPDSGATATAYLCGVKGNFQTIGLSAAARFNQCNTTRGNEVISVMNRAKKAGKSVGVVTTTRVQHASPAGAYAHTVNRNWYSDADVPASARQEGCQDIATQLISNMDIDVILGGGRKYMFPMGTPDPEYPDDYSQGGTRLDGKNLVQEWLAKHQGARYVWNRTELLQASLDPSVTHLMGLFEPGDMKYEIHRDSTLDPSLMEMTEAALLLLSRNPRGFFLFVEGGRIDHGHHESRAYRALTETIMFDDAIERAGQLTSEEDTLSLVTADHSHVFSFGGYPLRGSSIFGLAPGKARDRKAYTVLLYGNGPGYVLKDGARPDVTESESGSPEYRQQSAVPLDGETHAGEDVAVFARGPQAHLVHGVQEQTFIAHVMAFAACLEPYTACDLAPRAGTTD

[2] = molecular target: T1, human ALPI (intestinal alkaline …); assay: cell-based or functional assay
[3] = molecular target: T2, human ALPL (tissue non-specific …); assay: cell-based or functional assay
[4] = molecular target: T1, human ALPI (intestinal alkaline …); assay: flow cytometry, CHO-ALPI cells
[5] = molecular target: T2, human ALPL (tissue non-specific …); assay: flow cytometry, CHO-ALPL cells
[6] = molecular target: T6, human ALPP (alkaline phosphatase, placental type) expressed on the surface of CHO cells (human, UniProt P05187 23-506); assay: flow cytometry on CHO-ALPP cells, apparent KD (KDapp)
T6 construct: also called CHO-ALPP; hALPP
T6 sequence (P05187 23-506 limits assumed): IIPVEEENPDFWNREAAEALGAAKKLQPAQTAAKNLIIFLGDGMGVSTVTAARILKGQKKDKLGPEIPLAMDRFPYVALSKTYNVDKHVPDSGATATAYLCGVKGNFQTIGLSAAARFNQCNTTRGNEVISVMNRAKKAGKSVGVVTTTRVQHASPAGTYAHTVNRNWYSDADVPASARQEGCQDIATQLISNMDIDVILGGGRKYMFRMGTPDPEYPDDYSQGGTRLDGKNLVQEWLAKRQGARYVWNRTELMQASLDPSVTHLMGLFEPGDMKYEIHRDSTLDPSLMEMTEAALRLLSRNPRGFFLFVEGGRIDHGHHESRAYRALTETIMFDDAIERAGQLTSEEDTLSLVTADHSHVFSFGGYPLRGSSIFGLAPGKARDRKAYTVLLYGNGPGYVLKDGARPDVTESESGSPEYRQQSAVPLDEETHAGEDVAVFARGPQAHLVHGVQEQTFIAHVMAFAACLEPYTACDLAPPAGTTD
Experimental: (§1) Biparatopic VHH-hFc drug conjugates were assessed for human ALPP, ALPPL2, ALPI and ALPL cell-surface binding by flow cytometry. Binders were screened on CHO cells stably expressing human ALPP, ALPPL2, ALPI or ALPL.
(§2) Cell surface binding of test agents to hALPP isoforms was characterized in four CHO-ALPP isoform transfectant cell lines (CHO-ALPP, CHO-ALPPL2, CHO-ALPI and CHO-ALPL) and the resulting KDapp values determined. Adherent cells were detached from tissue culture flasks by incubating with 0.1% EDTA/PBS solution at 37° C. for […] or until cells detached easily. Cells were re-suspended in ice-cold PBS/2% FCS in 15 ml tubes and centrifuged at 1700 rpm for 5 mins at 4° C. Supernatant was removed and the cell pellet re-suspended in PBS/2% FCS. […] Cells were incubated with 100 μl of test agents at a range of concentrations, plus controls for 1 hr on ice. The sample plate was centrifuged at 1700 rpm for 5 mins at 4° C. The supernatant was removed, and a wash performed by re-suspending the cell pellets in 0.25 mL of ice-cold PBS/2% FCS using a multichannel pipette. Samples were again centrifuged at 1700 rpm for 5 min at 4° C. Supernatant was removed and two further washes performed as described. After the final wash and centrifugation step, excess liquid was removed by blotting the plate on tissue paper. Binding of VHH-hFc agents was determined by adding 100 μl of Fitc-anti-human Ab (ThermoFisher) and incubating for 30 mins on ice in the dark. Wash steps were performed as described previously. All cell pellets were finally re-suspended in 0.28 ml of ice-cold PBS/2% FCS and left on ice in the dark prior to analysis on a Merck-Millipore Guava EasyCyte HT or Thermo Fisher Attune N×T flow cytometer.

[7] = molecular target: T5, human ALPPL2 (alkaline phosphatase, …); assay: flow cytometry on CHO-ALPPL2 cells, apparent KD (KDapp)
Experimental: as §1, §2

human ALPI on CHO cells = molecular target: T3, human ALPI on CHO cells; assay: flow cytometry, CHO cells stably expressing human ALPI; PDC detected with FITC anti-human Ab
Experimental: as §1, §2

human ALPL on CHO cells = molecular target: T4, human ALPL on CHO cells; assay: flow cytometry, CHO cells stably expressing human ALPL; PDC detected with FITC anti-human Ab
Experimental: as §1, §2

| Binder | IC50 at 96 h, cell-killing of CHO-ALPPL2 cells [1] [nM] | IC50 at 96 h, cell-killing of CHO-ALPI cells (estimated from data extrapolation) [2] [nM] | IC50 at 96 h, cell-killing of CHO-ALPL cells [3] [nM] | binding result [4] | binding result [5] | Kd [6] [nM] | Kd [7] [nM] | binding result (human ALPI on CHO cells) | binding result (human ALPL on CHO cells) |
| --- | --- | --- | --- | --- | --- | --- | --- | --- | --- |
| D10 E10-hFc (S239/442C T366Y/Y407T), [G4S]1 linker, MC-vc-PAB-MMAE conjugate, #678 (Fc fusion, DAR 4, MC-vc-PAB-MMAE on Cys of S239C and S442C (EU numbering), Biparatopic knob-into-hole VHH-hFc heterodimer, DAR 4; also called D10-E10-hFc-vcPAB-MMAE; D10-E10 hFc-vc-MMAE) chain 1: QVQLVESGGGLVQPGGSLRLSCAASGSIFSVNTMGWYRQAPGKQRDLVAVATSGGTIHYADSVKGRFTISRDNAKNTVYLQMNSLKPEDTAVYYCNLVVPYGMIAGDHDYWGQGTKVTVSSGGGGSEPKSSDKTHTCPPCPAPELLGGPCVFLFPPKPKDTLMISRTPEVTCVVVDVSHEDPEVKFNWYVDGVEVHNAKTKPREEQYNSTYRVVSVLTVLHQDWLNGKEYKCKVSNKALPAPIEKTISKAKGQPREPQVYTLPPSRDELTKNQVSLYCLVKGFYPSDIAVEWESNGQPENNYKTTPPVLDSDGSFFLYSKLTVDKSRWQQGNVFSCSVMHEALHNHYTQKSLCLSPGK chain 2: QVQLVESGGGLVQAGGSLRLSCAVSGRALSDYNIGWFRQAPGKEREFVARKTWDGSSTRYDDSVKGRFTVSIEDAKNTAYLQMSSLKTEDTAVYYCAAGRYSRARGWEYDYWGQGTQVTVSSGGGGSEPKSSDKTHTCPPCPAPELLGGPCVFLFPPKPKDTLMISRTPEVTCVVVDVSHEDPEVKFNWYVDGVEVHNAKTKPREEQYNSTYRVVSVLTVLHQDWLNGKEYKCKVSNKALPAPIEKTISKAKGQPREPQVYTLPPSRDELTKNQVSLTCLVKGFYPSDIAVEWESNGQPENNYKTTPPVLDSDGSFFLTSKLTVDKSRWQQGNVFSCSVMHEALHNHYTQKSLCLSPGK | 12.8 | ~972 | > 1000 | no binding (tested: 350 nM (highest concentration)) | no binding (tested: 350 nM (highest concentration)) | 6.9 | 5 |  |  |
| D10-F05-hFc-vcPAB-MMAE [G4S]1 (Fc fusion, DAR 4, MC-vc-PAB-MMAE on Cys 239 and Cys 442 (EU numbering), Biparatopic drug conjugate, DAR 4; also called #679) chain 1: QVQLVESGGGLVQPGGSLRLSCAASGSIFSVNTMGWYRQAPGKQRDLVAVATSGGTIHYADSVKGRFTISRDNAKNTVYLQMNSLKPEDTAVYYCNLVVPYGMIAGDHDYWGQGTKVTVSSGGGGSEPKSSDKTHTCPPCPAPELLGGPCVFLFPPKPKDTLMISRTPEVTCVVVDVSHEDPEVKFNWYVDGVEVHNAKTKPREEQYNSTYRVVSVLTVLHQDWLNGKEYKCKVSNKALPAPIEKTISKAKGQPREPQVYTLPPSRDELTKNQVSLYCLVKGFYPSDIAVEWESNGQPENNYKTTPPVLDSDGSFFLYSKLTVDKSRWQQGNVFSCSVMHEALHNHYTQKSLCLSPGK chain 2: QVQLVESGGGLVQAGGSLRLSCAASGRAFGDYNIGWFRQAPGKEREFVARRTWDGSSTRYDDSVKGRFTVSIDNAKNTAYLQMNSLKTEDTAVYYCAAGRYSRVRGWEYDYWGQGTQVTVSSGGGGSEPKSSDKTHTCPPCPAPELLGGPCVFLFPPKPKDTLMISRTPEVTCVVVDVSHEDPEVKFNWYVDGVEVHNAKTKPREEQYNSTYRVVSVLTVLHQDWLNGKEYKCKVSNKALPAPIEKTISKAKGQPREPQVYTLPPSRDELTKNQVSLTCLVKGFYPSDIAVEWESNGQPENNYKTTPPVLDSDGSFFLTSKLTVDKSRWQQGNVFSCSVMHEALHNHYTQKSLCLSPGK |  |  |  |  |  |  |  | no binding (tested: 350 nM) | no binding (tested: 350 nM) |
